The values that follow come from patent US20200172618A1 (GENE SIGNAL INTERNATIONAL, published 2020).

In this assay the target is T1, Strep-CD9P1-ECD (recombinant soluble human CD9P-1 extracellular domain with Strep tag) (human, UniProt Q9P2B2 22-832).
T1 construct: The limits 22-832 are stated for the recombinant extracellular domain made in CHO cells and used as immunogen; also called recombinant CD9P-1 extracellular domain; not shown: Strep tag; Residue numbers of the construct are 8 higher than those of CD9P-1
T1 sequence: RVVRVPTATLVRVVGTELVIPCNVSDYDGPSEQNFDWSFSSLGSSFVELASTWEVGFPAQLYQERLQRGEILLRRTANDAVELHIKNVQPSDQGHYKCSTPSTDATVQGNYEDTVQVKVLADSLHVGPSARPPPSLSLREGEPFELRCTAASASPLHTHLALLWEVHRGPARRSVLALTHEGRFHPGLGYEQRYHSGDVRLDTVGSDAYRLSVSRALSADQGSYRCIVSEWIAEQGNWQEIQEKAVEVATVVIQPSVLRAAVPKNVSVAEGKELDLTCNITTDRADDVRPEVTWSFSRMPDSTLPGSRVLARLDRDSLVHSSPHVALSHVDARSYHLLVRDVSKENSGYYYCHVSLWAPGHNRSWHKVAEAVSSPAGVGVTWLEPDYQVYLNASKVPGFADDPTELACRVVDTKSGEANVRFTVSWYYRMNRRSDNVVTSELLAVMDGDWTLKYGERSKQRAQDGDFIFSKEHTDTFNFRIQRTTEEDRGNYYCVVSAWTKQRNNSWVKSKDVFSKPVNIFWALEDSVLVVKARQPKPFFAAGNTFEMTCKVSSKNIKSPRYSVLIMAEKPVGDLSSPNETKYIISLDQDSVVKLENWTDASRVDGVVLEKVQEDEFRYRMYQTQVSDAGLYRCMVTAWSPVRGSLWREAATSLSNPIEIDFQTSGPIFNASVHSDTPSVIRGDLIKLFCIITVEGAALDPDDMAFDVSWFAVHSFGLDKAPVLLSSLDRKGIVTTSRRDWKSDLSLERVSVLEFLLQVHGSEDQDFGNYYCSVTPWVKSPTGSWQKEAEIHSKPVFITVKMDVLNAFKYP
Put plainly: SPR; Strep-CD9P1-ECD coated on sensor chip, antibody flowed over. The source says:
Recombinant Strep-CD9P1-ECD was coated on sensor chip and several concentrations of the antibodies were flowed over the chip to obtain binding and dissociation kinetics.

B1: 9bF4 mAb (mouse anti-human CD9P-1 monoclonal antibody, hybridoma CNCM I-5213) (antibody, V domains shown)
VH: QVQLQQSGAELVKPGTSVKLSCKTSGYTFTSYWIQWIKQRPGQGLGWIGEIFPGTGTTSYHEKFKGKATLTIDTSSSTAYLQLSNLTSEDSAVYFCSRDFDVWGAGTTVTVSS
VL: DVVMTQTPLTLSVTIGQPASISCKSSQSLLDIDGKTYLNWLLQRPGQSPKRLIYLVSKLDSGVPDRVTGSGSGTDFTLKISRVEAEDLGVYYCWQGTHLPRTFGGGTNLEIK
notes: Mouse IgG from a hybridoma, purified on protein G; also called Mouse IgG 9bF4; IgG 9bF4
Turning to B1, the Kd is 90.9 nM, the koff turned out to be 0.00491 s⁻¹ and the on-rate constant (kon) was 54100 M⁻¹ s⁻¹.

B2: 10bB1 mAb (mouse anti-human CD9P-1 monoclonal antibody, hybridoma CNCM I-5214) (antibody, V domains shown)
VH: B1 VH
VL: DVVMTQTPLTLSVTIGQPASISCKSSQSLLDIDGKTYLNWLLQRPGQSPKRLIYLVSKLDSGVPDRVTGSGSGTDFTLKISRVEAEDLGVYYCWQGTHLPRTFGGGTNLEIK
notes: Mouse IgG from a hybridoma; also called IgG 10bB1; 10bB11
As to B2, the equilibrium dissociation constant (Kd) is 899 nM, the koff was determined as 0.0118 s⁻¹ and the association rate constant (kon) was 13200 M⁻¹ s⁻¹.
